Laboratory results published in patent US20140341881.

How the values were obtained:
[1] = target: T1, CFP-RVTST-YFP-6xHis substrate (peptide E12)
T1 chain: GALGGRVTSTGST

[2] = target: T2, CFP-VVMKD-YFP-6xHis substrate (peptide E10)
T2 chain: GALGGVVMKDGST

[3] = target: T3, CFP-TSYLN-YFP-6xHis substrate (peptide D7)
T3 chain: GALGGTSYLNGST

[4] = target: T4, CFP-YQSLN-YFP-6xHis substrate (peptide F10)
T4 chain: GALGGYQSLNGST

[5] = target: T5, CFP-TVDYA-YFP-6xHis substrate (peptide G9)
T5 chain: GALGGTVDYAGST

[6] = target: T6, CFP-LQRAI-YFP-6xHis substrate (peptide E8)
T6 chain: GALGGLQRAIGST

[7] = target: T7, CFP-GHRIN-YFP-6xHis substrate (clone F7)
T7 chain: GALGGGHRINGST

[8] = target: T8, CFP-SDKVY-YFP-6xHis substrate (clone C5)
T8 chain: GALGGSDKVYGST

[9] = target: T9, CFP-YQNSS-YFP-6xHis substrate (clone C9)
T9 chain: GALGGYQNSSGST

[10] = target: T10, CFP-NQRSS-YFP-6xHis substrate (peptide E5)
T10 chain: GALGGNQRSSGST

[11] = target: T11, CFP-QPNGY-YFP-6xHis substrate (clone F1)
T11 chain: GALGGQPNGYGST

[12] = target: T12, CFP-KLKET-YFP-6xHis substrate (clone F5)
T12 chain: GALGGKLKETGST

[13] = target: T13, CFP-QRLRD-YFP-6xHis substrate (peptide F11)
T13 chain: GALGGQRLRDGST

[14] = target: T14, CFP-NNKLR-YFP-6xHis substrate (peptide E9)
T14 chain: GALGGNNKLRGST

[15] = target: T15, CFP-RGKTN-YFP-6xHis substrate (peptide D9)
T15 chain: GALGGRGKTNGST

[16] = target: T16, CFP-VGLYD-YFP-6xHis substrate (peptide F6)
T16 chain: GALGGVGLYDGST

[17] = target: T17, CFP-VGSLR-YFP-6xHis substrate (peptide G1)
T17 chain: GALGGVGSLRGST

[18] = target: T18, CFP-STKGI-YFP-6xHis substrate (clone G3)
T18 chain: GALGGSTKGIGST

[19] = target: CFP-GGGGG-YFP
[20] = target: T19, CFP-RVDTG-YFP-6xHis substrate (clone D11)
T19 chain: GALGGRVDTGGST

[21] = target: T20, CFP-PVHLY-YFP-6xHis substrate (clone F12)
T20 chain: GALGGPVHLYGST

[22] = target: T21, CFP-LSRDN-YFP-6xHis substrate (peptide E7)
T21 chain: GALGGLSRDNGST

[23] = target: T22, CFP-MQATK-YFP-6xHis substrate (clone F4)
T22 chain: GALGGMQATKGST

[24] = target: T23, CFP-EAPAK-YFP-6xHis substrate (clone G7)
T23 chain: GALGGEAPAKGST

[25] = target: T24, CFP-LSGGR-YFP-6xHis substrate (peptide E2)
T24 chain: GALGGLSGGRGST

[26] = target: T25, CFP-AYGLA-YFP-6xHis substrate (clone G5)
T25 chain: GALGGAYGLAGST

[27] = target: T26, CFP-AYGYK-YFP-6xHis substrate (peptide E1)
T26 chain: GALGGAYGYKGST

[28] = target: T27, CFP-RQTND-YFP-6xHis substrate (peptide C11)
T27 chain: GALGGRQTNDGST

[29] = target: T28, CFP-HETLK-YFP-6xHis substrate (clone G11)
T28 chain: GALGGHETLKGST

[30] = target: T29, CFP-PDRHM-YFP-6xHis substrate (peptide F3)
T29 chain: GALGGPDRHMGST

[31] = target: T30, CFP-SAVRP-YFP-6xHis substrate (clone E11)
T30 chain: GALGGSAVRPGST

[32] = target: T31, CFP-MQVKH-YFP-6xHis substrate (clone E6)
T31 chain: GALGGMQVKHGST

[33] = target: T32, CFP-TTDLR-YFP-6xHis substrate (clone E4)
T32 chain: GALGGTTDLRGST

B1: human neutrophil elastase (HNE) (protein)
chain: IVGGRRARPHAWPFMVSLQLRGGHFCGATLIAPNFVMSAAHCVANVNVRAVRVVLGAHNLSRREPTRQVFAVQRIFENGYDPVNLLNDIVILQLNGSATINANVQVAQLPAQGRRLGNGVQCLAMGWGLLGRNRGIASVLQELNVTVVTSLCRRSNVCTLVRGRQAGVCFGDSGSPLVCNGLIHGIASFVRGGCASGLYPDAFAPVAQFVNWIDSIIQ
Kcat/Km [1]: 200000 M⁻¹ s⁻¹
Kcat/Km [2]: 65000 M⁻¹ s⁻¹
Kcat/Km [3]: 90000 M⁻¹ s⁻¹
Kcat/Km [4]: 49000 M⁻¹ s⁻¹
Kcat/Km [5]: 181000 M⁻¹ s⁻¹
Kcat/Km [6]: 209000 M⁻¹ s⁻¹

B2: human kallikrein 14 (hK14) (protein)
chain: IIGGHTCTRSSQPWQAALLAGPRRRFLCGGALLSGQWVITAAHCGRPILQVALGKHNLRRWEATQQVLRVVRQVTHPNYNSRTHDNDLMLLQLQQPARIGRAVRPIEVTQACASPGTSCRVSGWGTISSPIARYPASLQCVNINISPDEVCQKAYPRTITPGMVCAGVPQGGKDSCQGDSGGPLVCRGQLQGLVSWGMERCALPGYPGVYTNLCKYRSWIEETMRDK
kcat/Km [7]: 12000 M⁻¹ s⁻¹
kcat/Km [8]: 9000 M⁻¹ s⁻¹
kcat/Km [9]: 6000 M⁻¹ s⁻¹
Kcat/Km [1]: 26000 M⁻¹ s⁻¹
kcat/Km [1]: 26000 M⁻¹ s⁻¹
Kcat/Km [2]: 15000 M⁻¹ s⁻¹
kcat/Km [2]: 15000 M⁻¹ s⁻¹
Kcat/Km [10]: 388000 M⁻¹ s⁻¹
fold selectivity of cleavage against PK [10]: 27 and 78 fold more selective for hK14 than for hK2 and PK, respectively
fold selectivity of cleavage against hK2 [10]: 27 and 78 fold more selective for hK14 than for hK2 and PK, respectively
kcat/Km [10]: 388000 M⁻¹ s⁻¹
kcat/Km [11]: 6000 M⁻¹ s⁻¹
kcat/Km [12]: 19000 M⁻¹ s⁻¹
Kcat/Km [13]: 307000 M⁻¹ s⁻¹
kcat/Km [13]: 307000 M⁻¹ s⁻¹
Kcat/Km [14]: 74000 M⁻¹ s⁻¹
kcat/Km [14]: 74000 M⁻¹ s⁻¹
Kcat/Km [15]: 80000 M⁻¹ s⁻¹
kcat/Km [15]: 80000 M⁻¹ s⁻¹
Kcat/Km [16]: 18000 M⁻¹ s⁻¹
kcat/Km [16]: 18000 M⁻¹ s⁻¹
Kcat/Km [17]: 481000 M⁻¹ s⁻¹
kcat/Km [17]: 481000 M⁻¹ s⁻¹
kcat/Km [18]: 20000 M⁻¹ s⁻¹
hydrolysis of fluorescent substrate [19]: is not hydrolyzed by hK14 (not shown)
kcat/Km [20]: 15000 M⁻¹ s⁻¹
kcat/Km [21]: 7000 M⁻¹ s⁻¹
Kcat/Km [3]: 9000 M⁻¹ s⁻¹
kcat/Km [3]: 9000 M⁻¹ s⁻¹
Kcat/Km [22]: 127000 M⁻¹ s⁻¹
kcat/Km [22]: 127000 M⁻¹ s⁻¹
kcat/Km [23]: 8000 M⁻¹ s⁻¹
kcat/Km [24]: 8000 M⁻¹ s⁻¹
Kcat/Km [4]: 12000 M⁻¹ s⁻¹
kcat/Km [4]: 12000 M⁻¹ s⁻¹
Kcat/Km [5]: 134000 M⁻¹ s⁻¹
kcat/Km [5]: 134000 M⁻¹ s⁻¹
Kcat/Km [25]: 207000 M⁻¹ s⁻¹
kcat/Km [25]: 207000 M⁻¹ s⁻¹
kcat/Km [26]: 6000 M⁻¹ s⁻¹
Kcat/Km [27]: 24000 M⁻¹ s⁻¹
kcat/Km [27]: 24000 M⁻¹ s⁻¹
Kcat/Km [28]: 415000 M⁻¹ s⁻¹
kcat/Km [28]: 415000 M⁻¹ s⁻¹
kcat/Km [29]: 9000 M⁻¹ s⁻¹
Kcat/Km [6]: 367000 M⁻¹ s⁻¹
kcat/Km [6]: 367000 M⁻¹ s⁻¹
Kcat/Km [30]: 243000 M⁻¹ s⁻¹
kcat/Km [30]: 243000 M⁻¹ s⁻¹
kcat/Km [31]: 5000 M⁻¹ s⁻¹
kcat/Km [32]: 34000 M⁻¹ s⁻¹
kcat/Km [33]: 27000 M⁻¹ s⁻¹
